Paper PMC3826667, “S100A9 protein is a novel ligand for the CD85j receptor and its interaction is implicated in the control of HIV-1 replication by NK cells” (Retrovirology, 2013)

B1: full-length recombinant GST-tagged human S100A9 monomer (natural protein, UniProt P06702 1-114, looked up)
chain: MTCKMSQLERNIETIINTFHQYSVKLGHPDTLNQGEFKELVRKDLQNFLKKENKNEKVIEHIMEDLDTNADKQLSFEEFIMLMARLTWASHEKMHEGDEGPGHHHKPGLGEGTP
notes: S100A9, human, full-length recombinant, GST-tagged; source: bought: Tebu-bio
B2: recombinant GST-tagged human S100A8 monomer protein (natural protein, UniProt P05109 1-93, looked up)
chain: MLTELEKALNSIIDVYHKYSLIKGNFHAVYRDDLKKLLETECPQYIRKKGADVWFKELDINTDGAVNFQEFLILVIKMGVAAHKKSHEESHKE
notes: S100A8, human, recombinant, GST-tagged; source: bought: Tebu-bio

Molecular target: T1, recombinant CD85j-Fc fusion protein (human, UniProt Q8NHL6 24-461)
T1 construct: CD85j (LILRB1, ILT2, LIR-1), human; also called CD85j fusion protein; LILRB1; source: bought: R&D System
Experiment: ELISA; anti-GST mAb-coated wells, 4 ug/mL GST-tagged S100A8 or S100A9 captured, increasing amounts of CD85j-Fc, 2 h at 37°C; detected with HRP anti-human-Fc
Conditions: both partners purified

T1 sequence (Q8NHL6 24-461): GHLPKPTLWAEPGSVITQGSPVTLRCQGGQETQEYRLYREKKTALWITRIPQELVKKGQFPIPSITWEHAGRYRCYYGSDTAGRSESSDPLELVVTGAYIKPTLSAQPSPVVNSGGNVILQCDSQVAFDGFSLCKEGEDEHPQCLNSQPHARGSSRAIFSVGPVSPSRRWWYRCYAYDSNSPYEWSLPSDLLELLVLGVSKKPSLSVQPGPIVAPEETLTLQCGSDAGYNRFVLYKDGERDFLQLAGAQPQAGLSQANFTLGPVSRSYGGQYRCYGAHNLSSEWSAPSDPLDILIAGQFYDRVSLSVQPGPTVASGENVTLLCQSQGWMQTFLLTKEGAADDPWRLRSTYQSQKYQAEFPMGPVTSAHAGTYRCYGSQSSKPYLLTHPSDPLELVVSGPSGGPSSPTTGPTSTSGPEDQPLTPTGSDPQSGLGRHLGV

Binder | binding result
B1 | binds
B2 | binds
